Laboratory results from patent publication US20260201347A1, “ARTIFICIAL BIFUNCTIONAL ENZYME COMPRISING A MYELOPEROXIDASE ACTIVITY AND A GLUCOSE OXIDASE ACTIVITY AND APPLICATIONS THEREOF” (UNIVERSITÉ DE BORDEAUX, priority 2022, published 2026).
Positions count from the first letter of the chain named.

Columns and labels:
Assay type in all cases: biochemical, Rhodopirellula baltica / Penicillium amagasakiens
Settings in all cases: fixed NaCl 20 mM, pH7.5, pH 7.5
[1] = substrate: OC[C@H]1OC(O)[C@H](O)[C@@H](O)[C@@H]1O; assay: Coupled active sites, HOCl production from glucose, APF assay (Table 9), linker LEGGEAEA
Protocol: (§1) Each experiment was performed in triplicate.
(§2) The activity of the two active sites was then assessed in conjunction to each other (FIG. 1).
(§3) Briefly, the aim was to measure the production of HOCl from glucose and NaCl as respective substrates of the enzymes, using the APF probe. Two types of kinetics were performed: • i) kinetics at various concentrations of glucose and a fixed concentration of NaCl, and • ii) kinetics at various concentration of NaCl and a fixed concentration of glucose.

[2] = substrate: OC[C@H]1OC(O)[C@H](O)[C@@H](O)[C@@H]1O; assay: Coupled active sites, HOCl production from glucose, APF assay (Table 9), linker LGKRGAGA
Protocol: as §1, §2, §3

[3] = substrate: OC[C@H]1OC(O)[C@H](O)[C@@H](O)[C@@H]1O; assay: Coupled active sites, HOCl production from glucose, APF assay (Table 9), linker GGGGGGGG
Protocol: as §1, §2, §3

[4] = substrate: OC[C@H]1OC(O)[C@H](O)[C@@H](O)[C@@H]1O; assay: Coupled active sites, HOCl production from glucose, APF assay (Table 9), linker LEKRPEAEA
Protocol: as §1, §2, §3

B1: RbMPO-LEGGEAEA-GOx chimera (Rhodopirellula baltica myeloperoxidase, SEQ ID NO: 10; linker SEQ ID NO: 4; Penicillium amagasakiens glucose oxidase, SEQ ID NO: … (protein)
chain: MLFWSKRTRKHPGRKRRRLRSEQLESRQLLAADFGGYRHNIYDAEDVNDDGRVSAIDALLVINAMTSETSRDENVFTDVNGDGRRSALDALRVINRIERGDVFPIDTSGDEDLNTLLPEMPSEVRSIDGSGNNPNDHLWGSVGQRLIRMAPAAYGDGISTLAGANRPSAREVSNVLSAMNTSQVLNDRGLSAFVYVWGQFIDHDLGLTESDEHGEAIDISVPEGDLWFDPMGSGEAVIPMTRTPIADGTGTSVGNPAQQFNQITAFIDGSMVYGSDAATAERLRTFAGGRLAISDNGLLPMDESGMVIAGDVRASENVGLTAIQTLFVREHNRLADEIFAADPEATDEEIYQRARLVVASLIQSITYNEFLPALLGQRAMDSYRGYDASVNPGIANEFSTAAFRLGHSTLRDEVGFMSNDGRESKDEMELKDAFFHASMLEETGIDSLLKFDASVQAQEIDLAVVDSLRNFLFGPPGAGGLDLVAMNIQRGRDHGLSDYNTTRQAYGLDRVETFDQITGDVELQQKLASLYGTVDNIDLWVGLMAEDHQHDASVGELTGLIIADQFQRTRDGDRFFYKNVLTDSEVESIERSTLADLIERNTSVDGLQENVFFMQVELRGRVILASSIPPNTMPSEVREEEIRGVSGMAIELIDASGKLVDSTVSDQHGNYRFRALSETGDYQVRLSESGEAMDVLVAHGAERIRGLDFIVLALEGGEAEAYLPAQQIDVQSSLLSDPSKVAGKTYDYIIAGGGLTGLTVAAKLTENPKIKVLVIEKGFYESNDGAIIEDPNAYGQIFGTTVDQNYLTVPLINNRTNNIKAGKGLGGSTLINGDSWTRPDKVQIDSWEKVFGMEGWNWDNMFEYMKKAEAARTPTAAQLAAGHSFNATCHGTNGTVQSGARDNGQPWSPIMKALMNTVSALGVPVQQDFLCGHPRGVSMIMNNLDENQVRVDAARAWLLPNYQRSNLEILTGQMVGKVLFKQTASGPQAVGVNFGTNKAVNFDVFAKHEVLLAAGSAISPLILEYSGIGLKSVLDQANVTQLLDLPVGINMQDQTTTTVSSRASSAGAGQGQAVFFANFTETFGDYAPQARDLLNTKLDQWAEETVARGGFHNVTALKVQYENYRNWLLDEDVAFAELFMDTEGKINFDLWDLIPFTRGSVHILSSDPYLWQFANDPKFFLNEFDLLGQAAASKLARDLTSQGAMKEYFAGETLPGYNLVQNATLSQWSDYVLQNFRPNWHAVSSCSMMSRELGGVVDATAKVYGTQGLRVIDGSIPPTQVSSHVMTIFYGMALKVADAILDDYAKSA
notes: 6His (in the pET21a vector behind the XhoI site); made in house; host or cells: E. coli BL21Star (DE3)
- Km ([1]; other: dimer/monomer): 629 ± 295 µM
- kcat ([1]; other: dimer/monomer): 0.000315 s⁻¹
- kcat/Km ([1]; other: dimer/monomer): 0.5 ± 0.259 M⁻¹ s⁻¹
- Km ([1]; other: excluded): 65600 ± 14200 µM
- kcat ([1]; other: excluded): 0.00056 s⁻¹
- kcat/Km ([1]; other: excluded): 0.00853 ± 0.00215 M⁻¹ s⁻¹
- Km ([1]; other: monomer 1): 8820 ± 4870 µM
- kcat ([1]; other: monomer 1): 0.00123 s⁻¹
- kcat/Km ([1]; other: monomer 1): 0.139 ± 0.095 M⁻¹ s⁻¹
- Km ([1]; other: monomer 2): 1380 ± 671 µM
- kcat ([1]; other: monomer 2): 0.00377 s⁻¹
- kcat/Km ([1]; other: monomer 2): 2.73 ± 1.5 M⁻¹ s⁻¹

B2: RbMPO-LGKRGAGA-GOx chimera (Rhodopirellula baltica myeloperoxidase, SEQ ID NO: 10; linker SEQ ID NO: 5; Penicillium amagasakiens glucose oxidase, SEQ ID NO: … (protein)
chain: B1 chain with E715G, G716K, G717R, E718G, E720G
notes: as for B1
- Km ([2]; other: dimer/monomer): 66900 ± 24100 µM
- kcat ([2]; other: dimer/monomer): 0.00305 s⁻¹
- kcat/Km ([2]; other: dimer/monomer): 0.046 ± 0.025 M⁻¹ s⁻¹
- Km ([2]; other: excluded): 2270 ± 1300 µM
- kcat ([2]; other: excluded): 0.00133 s⁻¹
- kcat/Km ([2]; other: excluded): 0.586 ± 0.384 M⁻¹ s⁻¹
- Km ([2]; other: trimer): 2022 ± 644 µM
- kcat ([2]; other: trimer): 0.0022 s⁻¹
- kcat/Km ([2]; other: trimer): 1.09 ± 0.801 M⁻¹ s⁻¹

B3: RbMPO-GGGGGGGG-GOx chimera (Rhodopirellula baltica myeloperoxidase, SEQ ID NO: 10; linker SEQ ID NO: 9; Penicillium amagasakiens glucose oxidase, SEQ ID NO: … (protein)
chain: B1 chain with L714G, E715G, E718G, A719G, E720G, A721G
notes: as for B1
- Km ([3]; other: dimer/monomer): 2060 ± 1290 µM
- kcat ([3]; other: dimer/monomer): 0.00155 s⁻¹
- kcat/Km ([3]; other: dimer/monomer): 0.754 ± 0.545 M⁻¹ s⁻¹
- Km ([3]; other: excluded): 2760 ± 1060 µM
- kcat ([3]; other: excluded): 0.000102 s⁻¹
- kcat/Km ([3]; other: excluded): 0.037 ± 0.017 M⁻¹ s⁻¹
- Km ([3]; other: monomer): 6196 ± 951 µM
- kcat ([3]; other: monomer): 0.000512 s⁻¹
- kcat/Km ([3]; other: monomer): 0.083 ± 0.015 M⁻¹ s⁻¹
- Km ([3]; other: trimer): 3610 ± 2110 µM
- kcat ([3]; other: trimer): 0.000589 s⁻¹
- kcat/Km ([3]; other: trimer): 0.163 ± 0.129 M⁻¹ s⁻¹

B4: RbMPO-LEKRPEAEA-GOx chimera (Rhodopirellula baltica myeloperoxidase, SEQ ID NO: 10; linker SEQ ID NO: 8; Penicillium amagasakiens glucose oxidase, SEQ ID NO: … (protein)
chain: MLFWSKRTRKHPGRKRRRLRSEQLESRQLLAADFGGYRHNIYDAEDVNDDGRVSAIDALLVINAMTSETSRDENVFTDVNGDGRRSALDALRVINRIERGDVFPIDTSGDEDLNTLLPEMPSEVRSIDGSGNNPNDHLWGSVGQRLIRMAPAAYGDGISTLAGANRPSAREVSNVLSAMNTSQVLNDRGLSAFVYVWGQFIDHDLGLTESDEHGEAIDISVPEGDLWFDPMGSGEAVIPMTRTPIADGTGTSVGNPAQQFNQITAFIDGSMVYGSDAATAERLRTFAGGRLAISDNGLLPMDESGMVIAGDVRASENVGLTAIQTLFVREHNRLADEIFAADPEATDEEIYQRARLVVASLIQSITYNEFLPALLGQRAMDSYRGYDASVNPGIANEFSTAAFRLGHSTLRDEVGFMSNDGRESKDEMELKDAFFHASMLEETGIDSLLKFDASVQAQEIDLAVVDSLRNFLFGPPGAGGLDLVAMNIQRGRDHGLSDYNTTRQAYGLDRVETFDQITGDVELQQKLASLYGTVDNIDLWVGLMAEDHQHDASVGELTGLIIADQFQRTRDGDRFFYKNVLTDSEVESIERSTLADLIERNTSVDGLQENVFFMQVELRGRVILASSIPPNTMPSEVREEEIRGVSGMAIELIDASGKLVDSTVSDQHGNYRFRALSETGDYQVRLSESGEAMDVLVAHGAERIRGLDFIVLALEKRPEAEAYLPAQQIDVQSSLLSDPSKVAGKTYDYIIAGGGLTGLTVAAKLTENPKIKVLVIEKGFYESNDGAIIEDPNAYGQIFGTTVDQNYLTVPLINNRTNNIKAGKGLGGSTLINGDSWTRPDKVQIDSWEKVFGMEGWNWDNMFEYMKKAEAARTPTAAQLAAGHSFNATCHGTNGTVQSGARDNGQPWSPIMKALMNTVSALGVPVQQDFLCGHPRGVSMIMNNLDENQVRVDAARAWLLPNYQRSNLEILTGQMVGKVLFKQTASGPQAVGVNFGTNKAVNFDVFAKHEVLLAAGSAISPLILEYSGIGLKSVLDQANVTQLLDLPVGINMQDQTTTTVSSRASSAGAGQGQAVFFANFTETFGDYAPQARDLLNTKLDQWAEETVARGGFHNVTALKVQYENYRNWLLDEDVAFAELFMDTEGKINFDLWDLIPFTRGSVHILSSDPYLWQFANDPKFFLNEFDLLGQAAASKLARDLTSQGAMKEYFAGETLPGYNLVQNATLSQWSDYVLQNFRPNWHAVSSCSMMSRELGGVVDATAKVYGTQGLRVIDGSIPPTQVSSHVMTIFYGMALKVADAILDDYAKSA
notes: as for B1
- Km ([4]; other: dimer/monomer): 2160 ± 1480 µM
- kcat ([4]; other: dimer/monomer): 0.000642 s⁻¹
- kcat/Km ([4]; other: dimer/monomer): 0.298 ± 0.235 M⁻¹ s⁻¹
- Km ([4]; other: excluded): 22600 ± 6500 µM
- kcat ([4]; other: excluded): 0.000365 s⁻¹
- kcat/Km ([4]; other: excluded): 0.016 ± 0.005 M⁻¹ s⁻¹
- Km ([4]; other: trimer): 1056 ± 496 µM
- kcat ([4]; other: trimer): 0.000156 s⁻¹
- kcat/Km ([4]; other: trimer): 0.148 ± 0.081 M⁻¹ s⁻¹
